From US6645762B2, “Synthases” (The Salk Institute for Biological Studies, priority 1998, dated 2003)
Positions count from the first letter of the chain named. In names and notes the source's numbering stands.

B1: wild-type TEAS: tobacco 5-epi-aristolochene synthase (TEAS) protein, SEQ ID NO:2, Nicotiana tabacum (protein)
chain: MASAAVANYEEEIVRPVADFSPSLWGDQFLSFSIKNQVAEKYAQEIEALKEQTRNMLLATGMKLADTLNLIDTIERLGISYHFEKEIDDILDQIYNQNSNCNDLCTSALQFRLLRQHGFNISPEIFSKFQDENGKFKESLASDVLGLLNLYEASHVRTHADDILEDALAFSTIHLESAAPHLKSPLREQVTHALEQCLHKGVPRVETRFFISSIYDKEQSKNNVLLRFAKLDFNLLQMLHKQELAQVSRWWKDLDFVTTLPYARDRVVECYFWALGVYFEPQYSQARVMLVKTISMISIVDDTFDAYGTVKELEAYTDAIQRWDINEIDRLPDYMKISYKAILDLYKDYEKELSSAGRSHIVCHAIERMKEVVRNYNVESTWFIEGYTPPVSEYLSNALATTTYYYLATTSYLGMKSATEQDFEWLSKNPKILEASVIICRVIDDTATYEVEKSRGQIATGIECCMRDYGISTKEAMAKFQNMAETAWKDINEGLLRPTPVSTEFLTPILNLARIVEVTYIHNLDGYTHPEKVLKPHIINLLVDSIKI
B2: boiled W273E-TEAS: boiled W273E-TEAS used as control in alkylation experiment (protein, UniProt Q40577 1-548, looked up, variant W273E)
5-epi-aristolochene synthase: B1 chain with Q44K, W273E
modifications: heat-denatured (boiled)
notes: boiled W273E-TEAS used as control in alkylation experiment
B3: TEAS C440W: TEAS mutant with tryptophan at position 440 (protein, UniProt Q40577 1-548, looked up, variant C440W)
5-epi-aristolochene synthase: B1 chain with Q44K, C440W
B4: TEAS Y520F: TEAS protein in which Tyr520 is changed to Phe, SEQ ID NO:6 (protein)
chain: B1 chain with K35D, N55S, M62R, T73I, D89E, T388M, Y520F
B5: TEAS C440W/W273S: TEAS double mutant, tryptophan at position 440 and serine at position 273, SEQ ID NO:10 (protein)
chain: B1 chain with K35D, N55S, M62R, T73I, D89E, W273S, T388M, C440W
B6: TEAS W273S: TEAS mutant with serine at position 273 (protein, UniProt Q40577 1-548, looked up, variant W273S)
5-epi-aristolochene synthase: B1 chain with Q44K, W273S
B7: TEAS W273E: TEAS protein in which Trp273 is changed to Glu, SEQ ID NO:4 (protein)
chain: B1 chain with K35D, N55S, M62R, T73I, D89E, W273E, T388M
B8: TEAS Y527F: TEAS protein in which Tyr527 is changed to Phe, SEQ ID NO:8 (protein)
chain: B1 chain with K35D, N55S, M62R, T73I, D89E, T388M, Y527F

Experiments:
Type in all cases: biochemical
[1] = Diterpene synthase activity assay with radiolabelled GGPP (solvent extraction, scintillation counting, Ag-TLC); settings: for conversion of GGPP to hexane-extractable products: 0.5 micromolar 3H GGPP plus unlabelled GGPP, 60 minutes at room temperature; for counts in hexane and ethyl acetate extracts after incubation with radiolabelled GGPP: hydrocarbon products extracted with hexane, oxygenated products with ethyl acetate, compared with buffer alone; for hexane-extractable products formed from GGPP, analyzed by Ag-TLC: overnight incubation at room temperature, FIG. 3
Protocol: (§1) Synthase activity assays were carried out based on the assay described in Vogeli and Chappell, Plant Physiol. 94:1860 (1990) and Vogeli, et al., Plant Physiol. 93:182 (1990). In general, radio-labeled (^3H or ^14C) substrate was incubated with enzyme at room temperature in a buffered magnesium salt solution (200 mM Tris, pH 8, 50 mM Mg chloride, 1 mM DTT, unless otherwise noted); hydrocarbon products were then selectively extracted into an organic solvent such as hexane. The hexane extract generally was treated with silica gel to remove prenyl alcohols and other oxygenated compounds generated by non-enzymatic hydrolysis of substrate, which partition inefficiently into hexane. Hydrocarbon products present in the hexane phase were quantitated by scintillation counting.
A subsequent extraction with a more polar organic solvent such as ethyl acetate was sometimes carried out. Oxygenated compounds more efficiently partition into ethyl acetate-type solvents. Compounds present in the ethyl acetate phase were also quantitated by scintillation counting.
(§2) Substrate concentrations typically ranged from 0.1 nanomolar to 100 micromolar. In some assays, the substrate was not radiolabeled. Reactions generally were carried out in triplicate for each substrate concentration. Protein concentration was determined by the Bradford method. For determination of steady-state kinetic parameters, enzyme concentrations were chosen such that generation of products over time was linear throughout the course of the reaction.
(§3) Diterpene synthase assays typically were carried out using ^3H geranylgeranyl diphosphate (GGPP) and enzyme in 250 mM Tris, 10 mM Mg chloride, 1 mM DTT, pH 8.0. Sesquiterpene synthase assays typically were carried out using ^14C or ^3H FPP and enzyme in 100 mM Tris, 30 mM Mg chloride, 1 mM DTT, pH 8.0. Monoterpene synthase assays typically were carried out using ^3H GPP and enzyme. As a control for nonspecific binding of GPP by protein, identical reactions were set up which contained BSA, rather than enzyme.
(§4) Terpenoid hydrocarbon products are not readily separated by thin layer chromatography on normal or reverse-phase plates; however, some can be separated by argentation TLC (Ag-TLC), in which silica plates are first treated with silver nitrate. Ag-TLC described here generally followed the procedure described by Back et al., Arch. Biochem. Biophys. 315:527 (1994). A silica TLC plate was dipped in 15% silver nitrate (aqueous), then dried for 3-5 hours at 110° C. After spotting of tritiated enzymatic products (solvent extract), the plate was developed in benzene:hexane, ethyl acetate (50:50:1, by volume), sprayed with En^3Hance (NEN) fluorography spray, placed on film, and exposed for several days to several weeks. Long exposure times were generally necessary, as silver-nitrate treatment of the TLC plate appeared to cause quenching of the fluorography reagents fluorescence. Alternatively, ^14C labelled products were detected after one to two days without the use of fluorography spray.
The TEAS W273S enzyme and radiolabelled GGPP were incubated as described above and hydrocarbon products were extracted with hexane. Oxygenated products were then extracted with ethyl acetate.
The mutant TEAS C440W1W273S protein contains a tryptophan residue at position 440 and a serine residue at position 273. Assays with GGPP were carried out using 0.5 micromolar ^3H GGPP, various concentrations of unlabelled GGPP (Echelon), and enzyme. Reactions were incubated for 60 minutes at room temperature. […] Hexane-extractable products of GGPP turnover by the double mutant were analyzed by Ag-TLC. The products included two species (Rf=0.11 and 0.28) that were distinct from the hydrolysis product geranyl geraniol (Rf=0.0).To verify that products generated by TEAS C440W/W273S from GGPP were not the hydrolysis product, geranylgeraniol, a sample was analyzed by Ag-TLC. […]

[2] = Alkylation of enzyme by radiolabeled FPP; settings: dependent upon the presence of MgCl2
Protocol: Reactions to determine the products made by TEAS W273E using FPP as substrate were carried out essentially as described above, using radioiabeled FPP. […] The alkylation was dependent upon the presence of MgCl2 in the reaction mixture. In control experiments, boiled W273E-TEAS, as well as wild-type TEAS and BSA, were not alkylated.

[3] = Sesquiterpene synthase activity assay with radiolabelled FPP (Ag-TLC and GC/MS product analysis); settings: for products of FPP turnover, analyzed by Ag-TLC: radiolabelled FPP, FIG. 4
Protocol: as §1, §2, §3, §4
Products of FPP turnover by the purified TEAS W273S mutant were analyzed by argentation thin-layer chromatography (Ag-TLC).
Reactions with FPP as substrate were carded out with ^14C FPP (9 μm) and enzyme (160 μm) in reaction buffer (20 μl). After incubating for 30 minutes at room temperature, products made by TEAS C440W/W273S were analyzed by Ag-TLC. […] The new product was distinct from both 5-epi-aristolochene and vetispiradiene. Several other products were also formed, many of which migrated slowly upon argentation TLC.
Reactions with radiolabeled FPP and TEAS Y520F enzyme were carried out essentially as described above. Reaction products were analysed by Ag-TLC and by GC/MS.

[4] = Monoterpene synthase activity assay with GPP; settings: crude extract of enzyme from E. coli
Protocol: as §1, §3
A crude extract of TEAS Y527F enzyme was made by inducing expression in E. coli cells, and sonicating the cells. […]

Row | alkylation of the enzyme by FPP [2] | Molecule | hexane-extractable products formed from GGPP, analyzed by Ag-TLC [1] | products of FPP turnover, hexane extract analyzed by GC/MS [3] | products of FPP turnover, analyzed by Ag-TLC [3] | also measured
1 | not alkylated | B1 | – | – | – | conversion of GGPP to hexane-extractable products [1]: did not; counts in hexane and ethyl acetate extracts after incubation with radiolabelled GGPP [1]: counts lower than buffer alone
2 | not alkylated | B2 | – | – | – | –
3 | – | B3 | no hexane-extractable products were detectable | single major sesquiterpene hydrocarbon product as well as a small number of minor hydroxylated products | at least one major terpenoid hydrocarbon product | –
4 | – | B4 | – | same GC retention time as authentic germacrene A and the same mass spectrum as authentic germacrene A | – | –
5 | – | B5 | different from those generated by non-enzymatic degradation of geranylgeranyl diphosphate | – | – | conversion of GGPP to hexane-extractable products [1]: converted GGPP to hexane-extractable products
6 | – | B6 | distinct from the products made by acid-catalyzed loss of diphosphates from GGPP | at least four terpene hydrocarbons | distinct from both 5-epi-aristolochene (Rf=0.78) and vetispiradiene (Rf=0.63) | counts in hexane and ethyl acetate extracts after incubation with radiolabelled GGPP [1]: counts that were significantly higher for both the hexane and ethyl acetate extracts
7 | alkylation of TEAS by FPP had occurred | B7 | – | – | at least one product other than 5-epi-aristolochene was formed | –
8 | – | B8 | – | – | products other than 5-epi-aristolochene were generated | products formed with GPP as a substrate (monoterpene synthase activity) [4]: No products were observed
